Laboratory results from patent publication US20110039257A1.

Molecular target: Akt1/PKB alpha recombinant enzyme (Upstate Biotechnology)
Assay: cell-based or functional assay

Akt1/PKB alpha recombinant enzyme (Upstate Biotechnology), sequence (P31749 whole entry): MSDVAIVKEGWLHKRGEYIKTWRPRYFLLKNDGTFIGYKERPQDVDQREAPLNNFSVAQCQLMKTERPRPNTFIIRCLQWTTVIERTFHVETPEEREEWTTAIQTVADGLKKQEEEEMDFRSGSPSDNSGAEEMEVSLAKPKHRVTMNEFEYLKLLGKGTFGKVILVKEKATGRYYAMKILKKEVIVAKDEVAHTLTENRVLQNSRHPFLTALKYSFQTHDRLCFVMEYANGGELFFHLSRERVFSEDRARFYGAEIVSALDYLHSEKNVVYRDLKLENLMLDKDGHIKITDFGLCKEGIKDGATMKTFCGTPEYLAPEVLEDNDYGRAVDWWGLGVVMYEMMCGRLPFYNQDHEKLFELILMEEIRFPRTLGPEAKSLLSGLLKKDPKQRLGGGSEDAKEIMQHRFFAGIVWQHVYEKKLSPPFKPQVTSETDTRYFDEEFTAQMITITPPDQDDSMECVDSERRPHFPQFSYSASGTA

decrease in luminescence (luciferase activity) with versus without Akt1/PKB: 50%
B1: CPM firefly luciferase serine/threonine kinase biosensor, construct pBFB340: Met-(Luc2.0 A-544)-(linker X)-…-(…)-(Rad53p FHA2 domain)-(linker Y)-(Luc2.0 4-B) (protein, part only; not given: luciferase fragments and linkers, part only)
chain, part: RKRDRLGTLGIGGSSGGGSGGGGSGGGNGRFLTLKPLPDSIIQESLEIQQGVNPFFIGRSEDCNCKIEDNRLSRVHCFIFKKRHAVGKSMYESPAQGLDDIWYCHTGTNVSYLNNNRMIQGTKFLLQDGDEIKIIWDKNNKFVIGFKVEINDTTGLFNEGLGMLQEQRVVLKQTAEEKDLVKKL
